The series concerns the target T1, IscR (Pseudomonas aeruginosa PAO1) (UniProt Q9HXI7).
T1 sequence: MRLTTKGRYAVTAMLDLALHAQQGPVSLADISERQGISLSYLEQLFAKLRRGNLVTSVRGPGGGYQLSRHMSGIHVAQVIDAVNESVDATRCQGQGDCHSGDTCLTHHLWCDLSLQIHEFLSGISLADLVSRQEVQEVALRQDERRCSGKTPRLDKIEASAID
The series can be described thus: EMSA.

Where two headings read alike, the source gives them in different places.

Regarding “GTCAACCGCAAGCGCTGATCGGCCGCTGGCTATCCCCGTCAGCGGGGATAGCCACAAGCCTTGCGGGTGTTTCTGCCGGGTGCTTTGCGGGACACTAGGGGAGTATCGGTATCCGGAGCGGACCATGACCGCCAGCGAAGAGAAATTCACCCGCCAGACGCTGCTCGACGTGCAGCCTCTGACT (double strand) [fprB promoter fragment (native), 184 bp]”, where the note is “20 mM Tris-HCl pH 8.0, 50 mM KCl, 4 mM MgCl2, 0.5 mM EDTA, 0.02 mg/ml BSA, 5 mM DTT, 10% glycerol, 200 ng poly(dI-dC), 3 fmol probe in 25 ul, 25 C 20 min, 7% …”, the binding entry is reported as “binds”.

Regarding “GTCAACCGCAAGCGCTGATCGGCCGCTGGCTATCCCCGTCAGCGGGGATATTTACAAGCCTTGCGGGTGTTTCTGCCGGGTGCTTTGCGGGACACTAGGGGAGTATCGGTATCCGGAGCGGACCATGACCGCCAGCGAAGAGAAATTCACCCGCCAGACGCTGCTCGACGTGCAGCCTCTGACT (double strand) [fprB promoter fragment, IscR site GCC to TTT]”, the binding result is given as “no binding”.

(Values after paper PMC4521836.)
